Experimental data from publication PMC6028451, “Cotranslational protein targeting to the membrane: Nascent-chain transfer in a quaternary complex formed at the translocon” (Scientific Reports, 2018).

Target: T1, SecYEG translocon embedded in phospholipid-containing nanodiscs (Escherichia coli, UniProt P0AGA2 1-443; P0AG96 1-127; P0AG99 1-110)
T1 construct: SecY, Escherichia coli; SecE, Escherichia coli; SecG, Escherichia coli; membrane scaffold protein MSP1D1, the belt of the nanodisc; the disc holds E. coli total lipids; also called non-mutated SecYEG; copies: 1 + 1 + 1 + 2
Test: not stated; proOmpA75-RNC with SecYEG in nanodiscs (Supplementary Fig. S4b)
Settings: both partners purified

- Kd: 15 ± 3 nM
B1: proOmpA75-RNC: ribosome-nascent-chain complex carrying the nascent chain of outer-membrane protein A (complex)
chain: MKKTAIAIAVALAGFATVAQAAPKDNTWYTGAKLGWSQYHDTGFINNNGPTHENQLGAGAFGGYQVNPYVGFEMG
